From paper PMC9627735 (RSC Chemical Biology, 2022)
Numbering of substitutions follows the chain as printed. In names and notes the source's numbering stands.

Assays:
[1] = target: recombinant human wildtype Bri2 BRICHOS (human) (UniProt Q9Y287); assay: SEC; rh Bri2 BRICHOS at pH 6.0, 20 mmol L^-1 NaPi, 0.2 mmol L^-1 EDTA (ESI Fig. S2c, d); monomer to dimer
[2] = target: recombinant human wildtype Bri2 BRICHOS (human) (UniProt Q9Y287); assay: SEC; rh Bri2 BRICHOS wildtype and D148N at rising concentrations, 0.5 to 200 μmol L^-1 (ESI Fig. S2a, b, S3, S4); monomer to dimer
[3] = target: the molecule itself; assay: SEC; purified rh proSP-C BRICHOS variants on Superdex 200 GL
[4] = target: the molecule itself; assay: other fluorescence titration; Trp fluorescence of rh Bri2 BRICHOS T206W monomers, 2 μmol L^-1, 20 mmol L^-1 NaPi, 0.2 mmol L^-1 EDTA, pH 6.3-8.0; excitation 280 nm; monomer to dimer
[5] = target: the molecule itself; assay: SEC; rh Bri2 BRICHOS wildtype and D148N at rising concentrations, 0.5 to 200 μmol L^-1 (ESI Fig. S2a, b, S3, S4); monomer to dimer
[6] = target: the molecule itself; assay: SEC; rh Bri2 BRICHOS species obtained by thrombin cleavage of isolated NT*-Bri2 BRICHOS species; Superdex 200 PG, 200 GL or 75 PG; 20 mmol L^-1 NaPi, 0.2 mmol L^-1 EDTA

recombinant human wildtype Bri2 BRICHOS (from UniProt Q9Y287 113-231) (domain or fragment)
stoichiometry N [1]: 2
stoichiometry N [2]: 2

B1: recombinant human wildtype proSP-C BRICHOS (domain or fragment, UniProt P11686 86-197, looked up)
chain: EHLVTTATFSIGSTGLVVYDYQQLLIAYKPAPGTCCYIMKIAPESIPSLEALTRKVHNFQMECSLQAKPAVPTSKLGQAEGRDAGSAPSGGDPAFLGMAVSTLCGEVPLYYI
notes: prosurfactant protein C (proSP-C), human, BRICHOS domain, residues 86-197; Forms trimers and some monomers on SEC; also called rh wildtype proSP-C BRICHOS; wt proSP-C BRICHOS; source: E. coli Origami 2 (DE3) pLysS, purified (Ni-NTA, ion exchange); not shown: thioredoxin, N-terminal, cleaved
stoichiometry N [3]: 3

B2: recombinant human proSP-C BRICHOS D105N (domain or fragment, UniProt P11686 86-197, looked up)
chain: B1 chain with D20N
notes: prosurfactant protein C (proSP-C), human, BRICHOS domain, residues 86-197, with D105N; Made by site-directed mutagenesis of the wildtype plasmid; expressed and purified in parallel with the wildtype; also called rh proSP-C BRICHOS D105N; D105N mutant; source: E. coli Origami 2 (DE3) pLysS, purified (Ni-NTA, ion exchange); not shown: thioredoxin, N-terminal, cleaved
stoichiometry N [3]: 3

B3: recombinant human Bri2 BRICHOS T206W (domain or fragment, UniProt Q9Y287 113-231, looked up)
chain: QTIEENIKIFEEEEVEFISVPVPEFADSDPANIVHDFNKKLTAYLDLNLDKCYVIPLNTSIVMPPRNLLELLINIKAGTYLPQSYLIHEHMVIWDRIENIDHLGFFIYRLCHDKETYKL
notes: integral membrane protein 2B (ITM2B, Bri2), human, BRICHOS domain, residues 113-231, with Thr206 replaced by Trp; also called rh Bri2 BRICHOS T206W; source: E. coli SHuffle T7, purified (Ni-NTA, thrombin cleavage, second Ni-NTA, SEC); not shown: His6, N-terminal, cleaved; NT*, N-terminal, cleaved
binding result [4]: binds

B4: recombinant human Bri2 BRICHOS D148N (domain or fragment, UniProt Q9Y287 113-231, looked up)
chain: B3 chain with D36N, W94T
notes: integral membrane protein 2B (ITM2B, Bri2), human, BRICHOS domain, residues 113-231, with D148N; Occurs as monomers, dimers and large oligomers, isolated by SEC; all species are this one construct; also called rh Bri2 BRICHOS D148N; source: E. coli SHuffle T7, purified (Ni-NTA, thrombin cleavage, second Ni-NTA, SEC); not shown: His6, N-terminal, cleaved; NT*, N-terminal, cleaved
ratio of dimers to monomers at 0.5 μmol L^-1 [5]: ~1
stoichiometry N [6]: 2
